Target: trastuzumab (humanized IgG1 monoclonal antibody) (UniProt P01857-1;P01834 P01857-1:1-330,P01834:1-107)
Assay: covalent conjugation at heavy chain only, at least one per antibody; HEPES pH 8.4, Mg, K, 37 C, 1 day
Details: chain copies: 2
Description: Whether the aptamer brings oxanine close to the amine group of the target protein, enabling proximity-enhanced covalent bond formation, was monitored with SDS-PAGE (protein bands) and electrophoresis (DNA bands).

Chain of trastuzumab (humanized IgG1 monoclonal antibody) (P01857 other isoform, or with tags, fused parts or gaps, chain 1 of 2, other chains not shown): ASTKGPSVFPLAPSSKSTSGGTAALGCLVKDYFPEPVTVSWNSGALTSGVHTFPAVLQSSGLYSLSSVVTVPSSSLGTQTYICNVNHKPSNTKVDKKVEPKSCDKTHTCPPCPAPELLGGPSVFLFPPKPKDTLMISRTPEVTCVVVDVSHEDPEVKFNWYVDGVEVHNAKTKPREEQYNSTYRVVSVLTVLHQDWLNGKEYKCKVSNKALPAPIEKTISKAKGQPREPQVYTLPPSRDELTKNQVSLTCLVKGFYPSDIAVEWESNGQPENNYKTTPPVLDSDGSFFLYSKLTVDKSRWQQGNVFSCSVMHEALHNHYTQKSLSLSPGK

B1: Fc RNA aptamer Apt8-2-oxanine (mixed)
DNA: GGAGGTGCTCCGAAAGGAACTCC
modifications: printed ggAGG[2'-F-rU]Gc[2'-F-rU]ccgaaaGgaa[2'-F-rC][2'-F-rU]cc (lowercase DNA, uppercase RNA); about 10 oxanine nucleotides added at 3' end
B1: binds.

From US20240424107, “PREPARATION OF SITE-SPECIFIC POLYPEPTIDE CONJUGATES” (POSTECH RESEARCH AND BUSINESS DEVELOPMENT FOUNDATION, published 2024)
